Experimental data taken from patent US20080038777A1.

Assays:
[1] = molecular target: human C-C chemokine receptor 2B (human) (UniProt P41597); assay: cell-based or functional assay
[2] = molecular target: dog-human chimeric C-C chemokine receptor 2B (dog-human chimera (synthetic)); assay: cell-based or functional assay
Chain of dog-human chimeric C-C chemokine receptor 2B (dog-human chimera (synthetic)) (chain, as listed by the source mutant limits assumed): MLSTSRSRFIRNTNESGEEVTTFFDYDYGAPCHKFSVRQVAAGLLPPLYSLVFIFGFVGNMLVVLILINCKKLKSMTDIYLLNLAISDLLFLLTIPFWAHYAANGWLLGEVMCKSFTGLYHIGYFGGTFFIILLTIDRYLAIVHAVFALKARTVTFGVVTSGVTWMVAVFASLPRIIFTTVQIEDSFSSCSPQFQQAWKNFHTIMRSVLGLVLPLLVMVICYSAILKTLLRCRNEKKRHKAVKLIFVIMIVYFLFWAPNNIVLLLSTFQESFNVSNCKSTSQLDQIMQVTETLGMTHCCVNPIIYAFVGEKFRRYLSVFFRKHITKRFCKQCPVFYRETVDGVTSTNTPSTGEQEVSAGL

Chain of human C-C chemokine receptor 2B (human) (P41597 whole entry): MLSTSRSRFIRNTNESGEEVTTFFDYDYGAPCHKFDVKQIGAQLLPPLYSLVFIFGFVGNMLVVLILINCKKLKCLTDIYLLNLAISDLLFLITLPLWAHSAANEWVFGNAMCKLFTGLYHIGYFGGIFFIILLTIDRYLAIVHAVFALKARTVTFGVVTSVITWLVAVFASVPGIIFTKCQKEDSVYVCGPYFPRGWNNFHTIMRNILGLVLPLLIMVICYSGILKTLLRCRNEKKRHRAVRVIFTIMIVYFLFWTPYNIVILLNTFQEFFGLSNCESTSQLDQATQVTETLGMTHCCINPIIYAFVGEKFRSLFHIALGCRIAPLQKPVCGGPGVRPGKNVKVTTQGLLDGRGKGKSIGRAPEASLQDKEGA

EC50 of calcium mobilization (FLIPR), THP-1 cells [1]	EC50 of MCP-1 signaling (calcium mobilization, FLIPR) in THP-1 cells [1]	calcium mobilization (FLIPR), THP-1 cells [1]	EC50 of MCP-1-dependent calcium mobilization (FLIPR), CHO-K1 cells expressing the chimeric receptor [2]	Substance
0.03 µM				mouse monocyte chemoattractant protein-1 (from UniProt P10148 24-148) (ligand)
	0.003 µM	8 nM	0.0015 µM	human monocyte chemoattractant protein-1 (from UniProt P13500 24-99) (ligand)
0.053 µM				canine monocyte chemoattractant protein-1 (from UniProt P52203 24-101) (ligand)
